From doi:10.1101/2020.05.14.095372

Target: Mature human mitochondrial heat shock protein family D member 1 (HSPD1) (human), P10809
Test: cryo-EM structure
Details: remark: other sources report otherwise

B1: Mature human mitochondrial heat shock protein family D member 1 (HSPD1), P10809 27-573 (natural protein)
chain: AKDVKFGADARALMLQGVDLLADAVAVTMGPKGRTVIIEQSWGSPKVTKDGVTVAKSIDLKDKYKNIGAKLVQDVANNTNEEAGDGTTTATVLARSIAKEGFEKISKGANPVEIRRGVMLAVDAVIAELKKQSKPVTTPEEIAQVATISANGDKEIGNIISDAMKKVGRKGVITVKDGKTLNDELEIIEGMKFDRGYISPYFINTSKGQKCEFQDAYVLLSEKKISSIQSIVPALEIANAHRKPLVIIAEDVDGEALSTLVLNRLKVGLQVVAVKAPGFGDNRKNQLKDMAIATGGAVFGEEGLTLNLEDVQPHDLGKVGEVIVTKDDAMLLKGKGDKAQIEKRIQEIIEQLDVTTSEYEKEKLNERLAKLSDGVAVLKVGGTSDVEVNEKKDRVTDALNATRAAVEEGIVLGGGCALLRCIPALDSLTPANEDQKIGIEIIKRTLKIPAMTIAKNAGVEGSLIVEKIMQSSSEVGYDAMAGDFVNMVEKGIIDPTKVVRTALLDAAGVASLLTTAEVVVTEIPKEEKDPGMGAMGGMGGGMGGGMF
Work on B1 yielded a stoichiometry N of 7.
